Source: US20240209070A1, “COTH3 BINDING AGENTS AND USES THEREOF” (priority 2021, published 2024)

What was measured:
[1] = target: CotH3 antigen (Rhizopus delemar, UniProt I1CFE1); conditions: Protein G sensor, CotH3 6.25-400 nM, 25° C.
Method: The purified preparations were then used to assess the affinity of each clone for the CotH3 antigen by biolayer interferometry using Gator system (ProbeLife). Under the assumption that the CotH3 antigen provided by Vitalex behaves as a normal soluble monomeric protein, a Protein G coated sensor probe (ProbeLife, catalog #160006) was loaded with the bivalent antibody test clone at a concentration of 5 μg/ml in ProbeLife's kinetic buffer (PBS pH 7.4, 0.02% BSA, 0.002% Tween-20, 0.005% NaN3). A serial dilution of CotH3 antigen of 400, 200, 100, 50, 25, 12.5, 6.25 nM and buffer only (0 nM) was added to the sensors. All reactions were performed at 25° C. The values are chosen when three or more concentrations yield the same kinetic values. The original murine mAb was provided by Vitalex as the reference.

[2] = system: R. delemar 99-880; experiment: Neutropenic mouse model of mucormycosis, R. delemar 99-880 infection; assay type: in vivo, Rhizopus delemar; conditions: single dose of 30 μg 24 h after infection, lungs harvested day 4
Method: Mouse models: Neutropenic mice model used male ICR mice (20 to 23 g) obtained from Envigo (NJ). Mice were injected with cyclophosphamide (200 mg/kg, given intraperitoneally) and cortisone acetate (500 mg/kg, given subcutaneously) on days −2, +3, and +8 relative to infection^(1).
Antibody treatment with a single dose of 30 μg humanized antibody, or isotype human IgG started 24 or 48 hours after infection and was administered by intraperitoneal injection. Time to moribundity (equated with survival) served as the primary endpoint. As a secondary endpoint and in some experiments, fungal burden in the lungs and brains (primary and secondary target organs) was determined 96 hours after infection by quantitative PCR assay, as we previously described^(3). Values were expressed as log10 spore equivalent per gram of tissue. Histopathological examination was carried out on sections of the harvested organs after fixing in 10% zinc formalin. The fixed organs were embedded in paraffin, and […] sections were stained with hematoxylin and eosin.

[3] = target: Mucorales CotH3 (Rhizopus delemar, UniProt I1CFE1)
[4] = target: T1, Mucorales CotH2 (Rhizopus delemar, UniProt I1C4E4)
T1 sequence (I1C4E4 whole entry, looked up): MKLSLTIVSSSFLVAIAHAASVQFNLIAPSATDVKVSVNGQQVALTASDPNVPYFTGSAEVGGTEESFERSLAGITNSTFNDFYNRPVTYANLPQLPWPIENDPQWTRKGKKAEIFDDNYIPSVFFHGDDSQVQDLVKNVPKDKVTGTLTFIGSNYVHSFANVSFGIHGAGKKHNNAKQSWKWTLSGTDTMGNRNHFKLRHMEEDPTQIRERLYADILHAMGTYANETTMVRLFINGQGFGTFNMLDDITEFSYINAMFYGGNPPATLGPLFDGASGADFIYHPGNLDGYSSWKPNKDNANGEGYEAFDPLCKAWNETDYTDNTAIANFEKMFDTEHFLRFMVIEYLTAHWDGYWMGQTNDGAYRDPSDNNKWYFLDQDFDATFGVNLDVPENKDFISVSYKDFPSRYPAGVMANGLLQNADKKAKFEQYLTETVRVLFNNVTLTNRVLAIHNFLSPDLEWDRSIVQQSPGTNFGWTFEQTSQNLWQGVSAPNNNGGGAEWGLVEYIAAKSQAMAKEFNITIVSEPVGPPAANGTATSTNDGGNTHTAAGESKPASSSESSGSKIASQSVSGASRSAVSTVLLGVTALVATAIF

[5] = intravenous, single dose 10 μg, 30 μg or 100 μg, 1-168 hours
Method: Pharmacokinetics study: Neutropenic mice were infected intratracheally with 25 μl of PBS containing 2.5×10^5 spores of Rhizopus delemear. […] After infection, mice were treated daily with 5 mg in 0.2 ml of irrigation water with ceftazidime subcutaneously to prevent bacterial superinfection. […] Mouse serum samples were collected at the time points: 1 hour, 2 hours, 4 hours, 8 hours, 24 hours, 72 hours, 120 hours, and 168 hours after the antibody injection. The antibody concentration in the mouse serum samples was detected by ELISA, with Flag-CotH3 as the coating protein, and anti-human-IgG-HRP as the secondary antibody.

CotH3 antigen, sequence (I1CFE1 18-601): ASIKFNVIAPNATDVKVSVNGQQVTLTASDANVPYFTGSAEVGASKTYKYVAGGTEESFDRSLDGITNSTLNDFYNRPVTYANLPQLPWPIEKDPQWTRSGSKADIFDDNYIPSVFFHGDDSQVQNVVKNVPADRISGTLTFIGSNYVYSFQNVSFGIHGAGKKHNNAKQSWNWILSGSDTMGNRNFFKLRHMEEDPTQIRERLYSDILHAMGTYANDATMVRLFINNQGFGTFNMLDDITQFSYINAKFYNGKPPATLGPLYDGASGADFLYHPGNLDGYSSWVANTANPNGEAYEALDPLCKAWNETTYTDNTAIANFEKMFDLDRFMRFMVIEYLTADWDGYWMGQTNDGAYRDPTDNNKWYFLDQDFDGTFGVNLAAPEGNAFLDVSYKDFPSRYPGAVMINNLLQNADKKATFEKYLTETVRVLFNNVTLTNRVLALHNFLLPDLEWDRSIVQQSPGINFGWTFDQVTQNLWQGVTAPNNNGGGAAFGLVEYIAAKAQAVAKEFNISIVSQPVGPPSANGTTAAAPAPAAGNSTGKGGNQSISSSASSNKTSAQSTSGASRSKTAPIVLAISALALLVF
Mucorales CotH3, sequence (I1CFE1 18-601): as above

B1: mAb: mouse monoclonal IgG1 kappa anti-CotH3 antibody, clone C2, raised against peptide SEQ ID NO:34 (antibody, V domains shown)
VH: DLQLQESGPSLVKPSQTLSLTCSVTGDSITSGYWNWIRKFPGNKLEHMGYIKYSGRTFYNPSLKSRVSITRDTSKNQYYLQLNSVTSEDTATYYCASRGYWGQGTTLTVSS
VL: DVVMTQTPLSLSVTIGQPASISCKSSQSLLYSNGKTYLNWLQQRPGQAPKLLMFQVSKPGIPDRFSGSGSETDFTLKISRVEAEDLGVYYCLQGTYFPHTFGAGTKVEIK
- Koff (S^−1) [1]: 1.41E−3 S^−1
- Kon [1]: 23900 M⁻¹ s⁻¹
- Rmax [1]: 0.69
- lung histology [2]: no fungal elements and normal lung architecture
- specific binding to CotH3 [3]: bound specifically
- specific binding to CotH2 [4]: bound specifically
- pharmacokinetics (serum antibody concentration) [5]: Dose dependent pharmacokinetics
